Experimental findings from article PMC2527117 (The Journal of Biological Chemistry, 2008) are described below.

The data set deals with the molecule itself. Nature of the data set: SEC. (In general: In gel filtration, larger molecules generally elute earlier.)

B1: PfUIS3 soluble domain (residues 83-229) (domain or fragment, Plasmodium falciparum, UniProt Q8IEU1 83-229, looked up)
chain: YYGYKKSREDDLYYNKYLEYRNGEYNIKYQDGAIASTSEFYIEPEGINKINLNKPIIENKNNVDVSIKRYNNFVDIARLSIQKHFEHLSNDQKDSHVNNMEYMQKFVQGLQENRNISLSKYQENKAVMDLKYHLQKVYANYLSQEEN
For orientation: stoichiometry N means a count of units in the complex or per binding partner. Turning to B1, the “stoichiometry N” value turned out to be 2.
